Paper PMC6005513

Columns and labels:
[1] = biological target: WMHBV myr-preS1-Al633-peptide; assay: Al633 fluorescence of labelled myr-preS1-peptide bound to transfected HEK293 cells; conditions: 10 nM peptide, 20 min, 37°C, read off a plot
[2] = biological target: HBV myr-preS1-Al633-peptide (UniProt P03138); assay: as above; conditions: 10 nM peptide, 20 min, 37°C, read off a plot

**Q.** With “Callithrix jacchus (common marmoset) Ntcp, wild type (from UniProt F7HA36) G158R” as the substance, how does the response ([1]; parent: est. 20000) read?
**A.** 11000 rfu

**Q.** How did the response ([1]; parent: est. 20000) turn out when “Callithrix jacchus (common marmoset) Ntcp, wild type (from UniProt F7HA36) G158S” was run?
**A.** 14000 rfu

**Q.** For “Chlorocebus aethiops (grivet) Ntcp, wild type (from UniProt A0A0U3VGV8) R158G”, which response ([1]; parent: est. 11000) is on record?
**A.** 20000 rfu

**Q.** With “Macaca fascicularis (crab-eating macaque) Ntcp, wild type R158G” as the substance, how does the response ([1]; parent: est. 11000) read?
**A.** 18000 rfu

**Q.** What about the response ([2]; parent: est. 11000) of the same substance?
**A.** 25000 rfu

**Q.** With “Macaca mulatta (rhesus macaque) Ntcp, wild type (from UniProt A0A0U4DKK4) R158G” as the substance, how does the response ([1]; parent: est. 11000) read?
**A.** 20000 rfu

**Q.** Which response ([1]; parent: est. 11000) does the source give for “Saguinus oedipus (cotton-top tamarin) Ntcp, wild type (from UniProt A0A0U4EKU3) S158G” here?
**A.** 15000 rfu

**Q.** Which results are given for “Saimiri sciureus (common squirrel monkey) Ntcp, wild type G158R”?
**A.** response ([1]; parent: est. 18000): 11000 rfu; response ([2]; parent: est. 18000): 10000 rfu

**Q.** For “Saimiri sciureus (common squirrel monkey) Ntcp, wild type G158S”, which response ([1]; parent: est. 18000) is on record?
**A.** 10000 rfu

**Q.** And the response ([2]; parent: est. 18000)?
**A.** 11000 rfu

**Q.** Which results are given for “Semnopithecus sp. (langur) Ntcp, wild type R158G”?
**A.** response ([1]; parent: est. 10000): 21000 rfu; response ([2]; parent: est. 11000): 28000 rfu

**Q.** For “human Na+/taurocholate co-transporting polypeptide (NTCP), wild type (from UniProt Q14973) G158D”, which response ([1]; parent: est. 24000) is on record?
**A.** 12000 rfu

**Q.** With “human Na+/taurocholate co-transporting polypeptide (NTCP), wild type (from UniProt Q14973) G158N” as the substance, how does the response ([1]; parent: est. 24000) read?
**A.** 12000 rfu

**Q.** With “human Na+/taurocholate co-transporting polypeptide (NTCP), wild type (from UniProt Q14973) G158R” as the substance, how does the response ([1]; parent: est. 24000) read?
**A.** 11000 rfu

**Q.** How did the response ([1]; parent: est. 24000) turn out when “human Na+/taurocholate co-transporting polypeptide (NTCP), wild type (from UniProt Q14973) G158S” was run?
**A.** 19000 rfu

**Q.** For “human Na+/taurocholate co-transporting polypeptide (NTCP), wild type (from UniProt Q14973) G158V”, which response ([1]; parent: est. 24000) is on record?
**A.** 10000 rfu
